Consider two substances from patent US20190276873A1.

Common to all, as to test: cell-based or functional assay
Experiment [1] concerns the target Sensor 3: NNano-hVAMP1-CNano (human).
The target in experiment [2] is Sensor 2: NNano-p25-CNano (human).
In experiment [3] the target is In vivo assay construct: Nnano(1-159)-Firefly(Full length)-GGGGS-p25(FullLength)-Cnano(160-170) (Photinus pyralis; human).
Experiment [4] addresses Sensor 1: NNano-SV2C-p25-CNano (human).

Chain of In vivo assay construct: Nnano(1-159)-Firefly(Full length)-GGGGS-p25(FullLength)-Cnano(160-170) (Photinus pyralis; human) (P08659 other isoform, or with tags, fused parts or gaps): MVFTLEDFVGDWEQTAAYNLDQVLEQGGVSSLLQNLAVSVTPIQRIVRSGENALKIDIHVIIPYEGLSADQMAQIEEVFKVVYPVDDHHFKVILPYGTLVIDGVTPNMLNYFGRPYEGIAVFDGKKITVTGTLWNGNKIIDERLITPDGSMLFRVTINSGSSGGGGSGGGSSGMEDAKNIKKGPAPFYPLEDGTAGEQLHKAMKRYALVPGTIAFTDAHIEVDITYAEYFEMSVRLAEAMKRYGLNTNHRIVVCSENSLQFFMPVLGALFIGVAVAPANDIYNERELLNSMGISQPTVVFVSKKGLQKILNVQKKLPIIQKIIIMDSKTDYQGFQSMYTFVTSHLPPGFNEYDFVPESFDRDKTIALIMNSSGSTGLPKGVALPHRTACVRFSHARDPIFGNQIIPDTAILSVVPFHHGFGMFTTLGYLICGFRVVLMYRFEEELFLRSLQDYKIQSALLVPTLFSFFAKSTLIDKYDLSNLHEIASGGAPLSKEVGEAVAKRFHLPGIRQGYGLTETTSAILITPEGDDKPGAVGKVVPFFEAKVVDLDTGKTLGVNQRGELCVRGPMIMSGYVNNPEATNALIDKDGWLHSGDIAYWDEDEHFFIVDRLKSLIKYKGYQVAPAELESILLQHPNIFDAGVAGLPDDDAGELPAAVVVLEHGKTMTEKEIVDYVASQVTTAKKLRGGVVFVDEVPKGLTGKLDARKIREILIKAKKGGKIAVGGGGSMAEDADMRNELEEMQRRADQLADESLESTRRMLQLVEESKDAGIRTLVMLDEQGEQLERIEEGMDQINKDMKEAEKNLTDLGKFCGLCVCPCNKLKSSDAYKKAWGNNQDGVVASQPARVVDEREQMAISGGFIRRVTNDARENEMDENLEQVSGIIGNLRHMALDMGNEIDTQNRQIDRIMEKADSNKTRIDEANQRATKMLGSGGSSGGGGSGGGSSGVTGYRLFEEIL

In experiment [1], “Botulinum neurotoxin B (BoNT/B) (from UniProt P10844 2-1291) (enzyme)” returned an EC50 (percentage of luminescence of NANOLUC luciferase, after 4 h at 37 C) of 75.7 pM and an EC50 (percentage of luminescence of NANOLUC luciferase, after 24 h at 37 C) of 3.9 pM.
In experiment [2], “Botulinum neurotoxin A (BoNT/A) (from UniProt P0DPI0 2-1296) (enzyme)” had an EC50 (percentage of luminescence of NANOLUC luciferase, after 4 h at 37 C) of 48.3 pM and an EC50 (percentage of luminescence of NANOLUC luciferase, after 24 h at 37 C) of 35.9 pM. In addition, the EC50 (ratio NANOLUC/Firefly in lysates of neurons, 48 h after toxin) in experiment [3] is 2.9 pM. Besides, in experiment [4], the EC50 (percentage of luminescence of NANOLUC luciferase, after 4 h at 37 C) worked out at 9.73 pM; the EC50 (percentage of luminescence of NANOLUC luciferase, after 24 h at 37 C) stood at 7.86 pM; the fold sensitivity (EC50) against the sensor without SV2C came to 5 fold.
